In patent publication US20100168033A1, “UNACYLATED GHRELIN AS THERAPEUTIC AGENT IN THE TREATMENT OF METABOLIC DISORDERS” (ALIZE PHARMA SAS, priority 2007, published 2010) one finds IC50 data, which are given here for 2 molecules.

No end group written: not given here.

The target in test [1] is UAG receptor on INS-1E pancreatic β cells (rat). Kind of test: competition with [125I-Tyr4]-UAG on INS-1E β-cell membranes, mean±SEM of three experiments.
For test [2], the target named is UAG receptor on HIT-T15 pancreatic β cells (hamster). Kind of test: competition with [125I-Tyr4]-UAG on HIT-T15 β-cell membranes, mean±SEM of three experiments.

B1: UAG (6-13) (peptide)
peptide: SPEHQRVQ
modifications: not fully specified
As to B1, the IC50 in test [1] is 2.4 nM; in test [2], 3.8 nM.

B2: unacylated ghrelin UAG (1-28) (peptide)
peptide: GSSFLSPEHQRVQQRKESKKPPAKLQPR
Consider B2, for which the values for the IC50 in test [1] and in test [2] were 2 nM and 2.6 nM, respectively.
